Reference: US20240238445A1, “INHIBITORS AND USES THEREOF” (NEURACLE SCIENCE CO., LTD., priority 2021, published 2024)
Square brackets hold non-standard residues; d marks the D form. Ends that are not written are not given here.

B1: LRRC4B (36-576): full-length ectodomain of LRRC4B protein, amino acids 36-576 of SEQ ID NO: 2; FLAG-tagged or conjugated to human Fc (protein)
chain: AGGGGVAVTSAAGGGSPPATSCPVACSCSNQASRVICTRRDLAEVPASIPVNTRYLNLQENGIQVIRTDTFKHLRHLEILQLSKNLVRKIEVGAFNGLPSLNTLELFDNRLTTVPTQAFEYLSKLRELWLRNNPIESIPSYAFNRVPSLRRLDLGELKRLEYISEAAFEGLVNLRYLNLGMCNLKDIPNLTALVRLEELELSGNRLDLIRPGSFQGLTSLRKLWLMHAQVATIERNAFDDLKSLEELNLSHNNLMSLPHDLFTPLHRLERVHLNHNPWHCNCDVLWLSWWLKETVPSNTTCCARCHAPAGLKGRYIGELDQSHFTCYAPVIVEPPTDLNVTEGMAAELKCRTGTSMTSVNWLTPNGTLMTHGSYRVRISVLHDGTLNFTNVTVQDTGQYTCMVTNSAGNTTASATLNVSAVDPVAAGGTGSGGGGPGGSGGVGGGSGGYTYFTTVTVETLETQPGEEALQPRGTEKEPPGPTTDGVWGGGRPGDAAGPASSSTTAPAPRSSRPTEKAFTVPITDVTENALKDLDDVMKTTK
modifications: FLAG tag or human Fc
B2: full-length LRRC4C protein: full-length ectodomain of LRRC4C protein, amino acids 45-527 of SEQ ID NO: 3, conjugated to human Fc (protein)
chain: QTCPSVCSCSNQFSKVICVRKNLREVPDGISTNTRLLNLHENQIQIIKVNSFKHLRHLEILQLSRNHIRTIEIGAFNGLANLNTLELFDNRLTTIPNGAFVYLSKLKELWLRNNPIESIPSYAFNRIPSLRRLDLGELKRLSYISEGAFEGLSNLRYLNLAMCNLREIPNLTPLIKLDELDLSGNHLSAIRPGSFQGLMHLQKLWMIQSQIQVIERNAFDNLQSLVEINLAHNNLTLLPHDLFTPLHHLERIHLHHNPWNCNCDILWLSWWIKDMAPSNTACCARCNTPPNLKGRYIGELDQNYFTCYAPVIVEPPADLNVTEGMAAELKCRASTSLTSVSWITPNGTVMTHGAYKVRIAVLSDGTLNFTNVTVQDTGMYTCMVSNSVGNTTASATLNVTAATTTPFSYFSTVTVETMEPSQDEARTTDNNVGPTPVVDWETTNVTTSLTPQSTRSTEKTFTIPVTDINSGIPGIDEVMKTTK
modifications: conjugated to human Fc

Legend:
[1] = target: interaction between His-TEV LRRC4B and rFAM19A5 (Homo sapiens, UniProt Q7Z5A7); assay: Competitive inhibition assay (IC50), plate coated with His-TEV LRRC4B; type: binding
Sequence of interaction between His-TEV LRRC4B and rFAM19A5 (Q7Z5A7 44-132): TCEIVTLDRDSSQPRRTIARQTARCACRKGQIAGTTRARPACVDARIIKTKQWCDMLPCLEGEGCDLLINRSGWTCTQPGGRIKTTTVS
Experimental: To further assess the inhibitory effect of the FB-21 mutants, the ability of additional FB-21 mutants described in Example 9 were tested for their ability to inhibit the interaction between FAM19A5 protein and LRRC4B protein. Briefly, plates were coated with 100 nM of His-TEV LRRC4B and then 1 ng/mL of rFAM19A5 was incubated at 37° C. in the presence of increasing concentrations of the FB-21 peptide fragments (0.3, 1, 3, 10, 30, 100, 300, 1000, 3000 and 10000 nM). The LRRC4B-bound FAM19A5 levels were measured using HRP-conjugated 1-65 SS01 antibody. As shown in FIG. 22B (see Table 15 for IC50), most (if not all) of the FB-21 mutants had improved ability in inhibiting the interaction between LRRC4B and recombinant FAM19A5 protein.
Next, to assess whether other properties of the polypeptides described herein can be improved (e.g., solubility, prevention of degradation from protease and peptidase, and in vivo administration), the following additional FB-21 peptide mutants were constructed and tested for their ability to inhibit the interaction between FAM19A5 protein and LRRC4B: (1) d-form FB-21 peptide (“dFB-21”), (2) d-form FB-21 peptide with juxta-membrane (JM) sequence (“dFB-JM-31”), (3) d-form FB-21 peptide with BBB penetrating sequence at each end of the sequence (“dFB-BBB-39”), and (4) d-form FB-21 mutant peptide with DY replacement and additional JM sequence (“dFB-DY-JM31”). The sequence for d-form FB-21 peptide is set forth in SEQ ID NO: 153 (nYTYFTTVTVETLETQPGEEa; wherein the lowercase amino acids represent D-form of the amino acid, and the uppercase amino acids represent L-form of the amino acid). The sequence for dFB-BBB-39 is set forth in SEQ ID NO: 154 (n[…]l; wherein the lowercase amino acids represent D-form of the amino acid, and the uppercase amino acids represent L-form of the amino acid). The sequence for dFB-JM-31 is set forth in SEQ ID NO: 155 (n[…]a; wherein the lowercase amino acids represent D-form of the amino acid, and the uppercase amino acids represent L-form of the amino acid). The sequence for dFB-DY-JM31 is set forth in SEQ ID NO: 156 (n[…]a; wherein the lowercase amino acids represent D-form of the amino acid, and the uppercase amino acids represent L-form of the amino acid). The overall experimental methods were the same as those described immediately above.

[2] = tested on: mouse primary cortical neurons; assay: Neurite growth of mouse primary cortical neurons in vitro; type: cell-based; conditions: treated days 1 and 2, assessed day 3, anti-beta-tubulin III; LRRC4B fragment 0.006 to 60 nM; versus control
Experimental: Next, primary cortical neurons (day 1 postnatal) were cultured in vitro with varying concentrations (0.006 to 60 nM) of the LRRC4B (453-576) protein fragment (i.e., amino acid residues 453-576 of SEQ ID NO: 2; SEQ ID NO: 7), and then at day 3 post-initial culture, the effect on neurite growth was assessed by immunostaining the cells with anti-beta-tubulin III antibody. Cells cultured with DMSO (“Veh”) were used as control.
Mouse hippocampal neurons were treated with LRRC4B peptides at 1 and 2 DIV to determine neurite growth. It was measured by using 3 different parameters, which are total neurites length, number of primary and secondary neurites. After the neurons were stained with beta-tubulin III at 3 DIV, neurites length and branch points were measured using Fiji (Image J, NIH, Bethesda). Individual neurons were selected by hand and these parameters were counted using the Simple neurite tracer plugin. Mouse spinal motor neurons sampled at postnatal day 1 were treated with 10 nM of NS101 and LRRC4B-peptides (dFB-dWY-JM31 and dFB-DY-JM31) at 1 and 2 DIV and immunostained with Tau-5 antibody at 3 DIV. Total neurite length and number of somas in images were measured by Neurphology Image J plugin.

[3] = target: T1, FAM19A5 protein (Homo sapiens, UniProt Q7Z5A7); assay: ELISA binding of recombinant FAM19A5 to coated hFc-conjugated LRRC4 family ectodomains, fragments or synthetic peptides; conditions: for binding to FAM19A5 protein (ELISA, in words): coated 100 nM/well, FAM19A5 up to 10 nM
T1 sequence (Q7Z5A7 44-132): as above
Experimental: Next, to confirm the above co-immunoprecipitation results, an ELISA assay was used to measure the binding of the FAM19A5 protein to either the full-length ectodomain of members of LRRC4 protein family or various LRRC4B ectodomain protein fragments. Specifically, an ELISA plate was coated with one of the following LRRC4B ectodomain protein, which was conjugated to human Fc (100 nM/well): (1) full-length ectodomain of LRRC4 protein (amino acid residues 39-527 of SEQ ID NO: 1) (SEQ ID NO: 4); (2) full-length ectodomain of LRRC4B protein (amino acids 36-576 of SEQ ID NO: 2; i.e., construct #7 in Table 6) (SEQ ID NO: 5); (3) full-length ectodomain of LRRC4C protein (amino acids 45-527 of SEQ ID NO: 3) (SEQ ID NO: 6); (4) LRRC4B ectodomain fragment (amino acids 453-576 of SEQ ID NO: 2; i.e., construct #11 in Table 6) (SEQ ID NO: 7); (5) LRRC4B ectodomain fragment (amino acids 484-576 of SEQ ID NO: 2; i.e., construct #12 in Table 6) (SEQ ID NO: 8); (6) LRRC4B ectodomain fragment (amino acids 482-576 of SEQ ID NO: 2) (SEQ ID NO: 9); (7) LRRC4B ectodomain fragment (amino acids 482-497 of SEQ ID NO: 2) (SEQ ID NO: 10); and (8) LRRC4B ectodomain fragment (amino acids 498-576 of SEQ ID NO: 2; i.e., construct #13 in Table 6) (SEQ ID NO: 11). Then, recombinant FAM19A5 proteins (0.005, 0.01, 0.025, 0.05, 0.1, 0.25, 0.5, 1, 2.5, 5, and 10 nM) were added to the relevant wells, and the plates were incubated at 37° C. for 1 hour. Afterwards, the amount of LRRC4B-bound FAM19A5 protein was detected using HRP-conjugated anti-FAM19A5 (1-65) antibody.
As further confirmation, three synthetic polypeptides comprising amino acids 484-497 of SEQ ID NO: 2 (i.e., YTYFTTVTVETLET; SEQ ID NO: 65) were constructed: (1) FB-16 (GYTYFTTVTVETLETQ; SEQ ID NO: 17), (2) FB-20 ([…]; SEQ ID NO: 18), and (3) FB-28 ([…]; SEQ ID NO: 19). The peptides differed in their total length. The ability of these polypeptides to bind to recombinant FAM19A5 protein was assessed using an ELISA assay as described above.

[4] = target: T1, FAM19A5 protein; assay: Co-immunoprecipitation of FLAG-tagged LRRC4 family deletion constructs/fragments with recombinant FAM19A5 in HEK293 cells; type: binding; conditions: HEK293 cells expressing FLAG-tagged construct, recombinant FAM19A5 1 μM 30 minutes; IP anti-FLAG, blot anti-FAM19A5 (3-2)
Experimental: To understand the interaction between FAM19A5 and members of the LRRC4 protein family, HEK293 cells were modified to express a FLAG-tagged member of the LRRC4 protein family, i.e., LRRC4C protein, LRRC4 protein, or LRRC4B protein. Then, the HEK293 cells or primary cortical neurons were treated with recombinant FAM19A5 protein (1 μM) for 30 minutes, and the binding between FAM19A5 protein and the different members of the LRRC4 protein family was assessed using both co-immunoprecipitation and immunofluorescence assays.
For the co-immunoprecipitation assay, cell lysates from the different FAM19A5-treated HEK293 cells were collected and immunoprecipitated with an anti-FLAG antibody, anti-FAM19A5 (1-65) antibody, or a human IgG antibody (control). Immunoprecipitated proteins were immunoblotted with anti-FLAG and anti-FAM19A5 (3-2) antibodies. For the immunofluorescence assay, the HEK293 cells treated with the recombinant FAM19A5 protein were immunostained with anti-FAM19A5 (3-2) (to detect FAM19A5 protein expression) and anti-FLAG antibodies (to detect member of the LRRC4 protein family). The primary cortical neurons treated with the recombinant FAM19A5 protein were immunostained with anti-FAM19A5 (3-2) and anti-LRRC4B antibodies. The nuclei were stained with Hoechst33342 (blue).
To determine the specific motif or domain of the LRRC4B protein that is responsible for the binding to a FAM19A5 protein, various FLAG-tagged LRRC4B deletion constructs were generated (see Table 6 below). HEK293 cells were transfected with the different deletion constructs and then treated with recombinant FAM19A5 protein as described in Example 1. Then, the cell lysates from the different HEK293 cells were immunoprecipitated with the anti-FLAG antibody. The immunoprecipitated proteins were immunoblotted with anti-FLAG and anti-FAM19A5 (3-2) antibodies.
As described in Example 2, all members of the LRRC4 protein family were capable of binding to FAM19A5 protein to varying degrees. Therefore, to compare the bindings domains, the amino acid sequences of the LRRC4B, LRRC4, and LRRC4C proteins were aligned. […] Therefore, to assess whether the corresponding positions of LRRC4 and LRRC4C were important in the binding of these proteins to FAM19A5 protein, cDNAs encoding either (i) LRRC4C protein fragment (amino acids 354-527 of SEQ ID NO: 3; SEQ ID NO: 66) or (ii) LRRC4 protein fragment (amino acids 353-527 of SEQ ID NO: 1; SEQ ID NO: 67) were constructed (see Table 7). HEK293 cells were transfected to express either of the protein fragments and then treated with recombinant FAM19A5 protein as described in Example 1. Then, the cell lysates from the different HEK293 cells were immunoprecipitated with the anti-FLAG antibody. The immunoprecipitated proteins were immunoblotted with anti-FLAG and anti-FAM19A5 (3-2) antibodies.

Row | Molecule | neurite growth / neurite outgrowth [2] | binding to FAM19A5 protein (ELISA, in words) [3] | other results
1 | GYTYFTTVTVEDYETQPGEE [FB-21 (D12Y13)] |  |  | fold more effective in dissociating LRRC4B-FAM19A5 complex formation compared to FB-21 ([1]; from IC50 of Table 15): 2.4 fold; fold more effective in dissociating LRRC4B-FAM19A5 complex formation compared to FB-21 (W12Y13) ([1]; from IC50 of Table 15): 7 fold
2 | GYTYFTTVTVETLETQ [FB-16] | Increased neurite outgrowth | able to bind to recombinant FAM19A5 protein with high affinity | 
3 | GYTYFTTVTVETLETQPGEKEPPGPTTD [FB-28] | Increased neurite outgrowth | able to bind to recombinant FAM19A5 protein with high affinity | 
4 | nYTYFTTVTVEDYETQPGEEALDEVMKTTKa ([dN]YTYFTTVTVEDYETQPGEEALDEVMKTTK[dA]; also: terminal modifications n and a on first and last residues) [dFB-DY-JM31] |  |  | fold more effective in inhibiting complex formation compared to the wild-type FB-21 ([1]; FIG. 22C, D-form amino acids at both termini): 4 fold
5 | B1 |  |  | binding to FAM19A5 protein (co-immunoprecipitation) [4]: able to bind to the FAM19A5 protein with varying degree; EC50 ([3]; hFc-conjugated ectodomain coated 100 nM/well, FAM19A5 0.005-10 nM, 37° C. 1 hour): 0.64 nM
6 | B2 |  | No saturation in binding was observed | 
